Numbering of substitutions follows the chain as printed.

To fix the notation:
T1: murine PD-1 (mouse, UniProt Q02242 25-167, limits assumed)
T1 construct: also called mouse PD-1
T1 sequence (looked up): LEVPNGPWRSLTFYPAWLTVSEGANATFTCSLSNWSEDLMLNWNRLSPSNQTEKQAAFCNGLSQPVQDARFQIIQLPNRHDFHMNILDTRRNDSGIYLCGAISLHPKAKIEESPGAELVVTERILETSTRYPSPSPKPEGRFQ

B1: PD1AB-5 (antibody, V domains shown)
VH: EVQLVQSGAEVKKPGATVKISCKASGFNIKDTYMHWVQQAPGKGLEWMGRIDPANGDRKYDPKFQGRVTITADTSTDTAYMELSSLRSEDTAVYYCARSGPVYYYGSSYVMDYWGQGTTVTVSS
VL: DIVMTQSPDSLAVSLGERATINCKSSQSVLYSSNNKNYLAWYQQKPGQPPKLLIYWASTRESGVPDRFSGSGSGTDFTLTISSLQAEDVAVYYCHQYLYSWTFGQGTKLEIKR
notes: also called HC/LC TOPO vector 3650/3193
B2: PD1AB-6 (antibody, IgG1, V domains shown)
VH: B1 VH
VL: DIVMTQSPDSLAVSLGERATINCKSGQSVLYSSNQKNFLAWYQQKPGQPPKLLIYWASTRESGVPDRFSGSGSGTDFTLTISSLQAEDVAVYYCHQYLYSWTFGQGTKLEIKR
notes: also called HC/LC TOPO vector 3650/3017
B3: PD1AB-3 (antibody, V domains shown)
VH: B1 VH with A24V, D77N
VL: B2 VL with S83N
notes: also called HC/LC TOPO vector 3653/3646
B4: PD1AB-4 (antibody, V domains shown)
VH: B1 VH with A24V, D77N
VL: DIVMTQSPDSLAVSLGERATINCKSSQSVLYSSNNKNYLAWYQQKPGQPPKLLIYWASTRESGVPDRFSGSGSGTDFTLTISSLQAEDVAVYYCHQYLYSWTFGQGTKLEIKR
notes: also called HC/LC TOPO vector 3653/3193
B5: PD1AB-2 (antibody, V domains shown)
VH: B1 VH with A24V
VL: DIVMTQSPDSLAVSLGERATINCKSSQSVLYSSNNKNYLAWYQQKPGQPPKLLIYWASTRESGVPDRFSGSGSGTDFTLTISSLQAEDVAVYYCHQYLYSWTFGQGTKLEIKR
notes: also called HC/LC TOPO vector 3015/3193
B6: PD1AB-1 (antibody, V domains shown)
VH: B1 VH with A24V
VL: B2 VL
notes: also called parental clone PD1AB-1; HC/LC TOPO vector 3015/3017

T2 sequence (Q15116 25-170 limits assumed): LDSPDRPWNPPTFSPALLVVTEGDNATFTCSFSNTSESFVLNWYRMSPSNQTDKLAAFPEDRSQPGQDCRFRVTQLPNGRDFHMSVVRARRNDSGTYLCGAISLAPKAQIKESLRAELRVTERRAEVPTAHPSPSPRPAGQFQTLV

One test has as its target T2, human PD-1 (soluble / purified antigen, construct not stated) (human, UniProt Q15116 25-170, limits assumed).
T2 construct: also called soluble antigen
In words: KinExA, n = 1. For orientation: In KinExA the mixture passes briefly over coated beads that capture the unbound partner.
In general, Kd refers to the free concentration of one partner at which half of the binding sites on the other are occupied at equilibrium, for simple one-to-one binding. A higher Kd goes with weaker binding. Consider B1, for which the affinity, expressed as Kd, was 0.4 nM.
Still for that read-out and setting: under B2 stands 0.45 nM; under B3, 0.35 nM; under B4, 0.5 nM.
Same read-out and setting: under B5 stands 0.425 nM.

In the next test the target is T2, human PD-1 (soluble / purified antigen, …). In words: KinExA, n = 2.
For the molecule B6, the affinity, expressed as Kd, was 0.575 nM.

For the next test the target is unchanged. The test can be described thus: Biacore (SPR), n = 2. For orientation: In SPR one partner is held on a chip, and binding of the other changes the refractive index at the surface.
The molecule B1 had a Kd of 6 nM.
The same measure, in the same setting: in the case of B2 it was 6 nM.
Consider B3, for which the dissociation constant Kd worked out at 7 nM.
On the same count and under the same terms, in the case of B4 it was 6 nM; in that of B5, 5 nM.

In the next test the target is T3, human PD-1 expressed on cells (human, UniProt Q15116 25-198). The test can be described thus: cell-based or functional assay.
T3 sequence (Q15116 25-198 limits assumed): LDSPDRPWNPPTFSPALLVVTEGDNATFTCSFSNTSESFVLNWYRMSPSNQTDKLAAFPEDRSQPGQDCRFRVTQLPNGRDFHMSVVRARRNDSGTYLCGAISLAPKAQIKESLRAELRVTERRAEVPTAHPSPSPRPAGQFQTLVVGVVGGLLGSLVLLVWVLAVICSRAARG
Regarding B6, the “CD4+ T cell IL-2 inhibition (EC50)” value was determined as 22 nM.
On the same count and under the same terms, under B1 stands 15 nM; under B2, 16 nM; under B3, 21 nM.
The same measure, in the same setting: under B4 stands 23 nM.
Same read-out and setting: under B5 stands 27 nM.

The target of a further test is T3, human PD-1 expressed on cells. The test can be described thus: cell-based or functional assay. The source holds these as a separate data set.
For the molecule B6, the “IFN-γ EC50, PBMC reactivation assay” value was determined as 46 nM; the “IFN-γ EC75, PBMC reactivation assay” value is 85 nM; the “IL-2 EC50, PBMC reactivation assay” value is 21 nM; the “IL-2 EC75, PBMC reactivation assay” value amounted to 40 nM. The “IL-17 EC50, PBMC reactivation assay” value was determined as 41 nM and the “IL-17 EC75, PBMC reactivation assay” value is 65 nM.
As for B1, the “IL-2 EC50, PBMC reactivation assay” value amounted to 36 nM and the “IL-2 EC75, PBMC reactivation assay” value is 58 nM.
With B2, the “IFN-γ EC50, PBMC reactivation assay” value was found to be 36 nM; the “IFN-γ EC75, PBMC reactivation assay” value is 67 nM; the “IL-2 EC50, PBMC reactivation assay” value stood at 24 nM; the “IL-2 EC75, PBMC reactivation assay” value came out at 33 nM. Also, the “IL-17 EC50, PBMC reactivation assay” value amounted to 37 nM and the “IL-17 EC75, PBMC reactivation assay” value was found to be 56 nM.
Take B3: the “IL-2 EC50, PBMC reactivation assay” value worked out at 24 nM and the “IL-2 EC75, PBMC reactivation assay” value came to 46 nM.
As to B4, the “IFN-γ EC50, PBMC reactivation assay” value is 34 nM; the “IFN-γ EC75, PBMC reactivation assay” value is 64 nM; the “IL-2 EC50, PBMC reactivation assay” value was found to be 20 nM; the “IL-2 EC75, PBMC reactivation assay” value stood at 39 nM. Besides, the “IL-17 EC50, PBMC reactivation assay” value is 27 nM and the “IL-17 EC75, PBMC reactivation assay” value stood at 52 nM.
As to B5, the “IFN-γ EC50, PBMC reactivation assay” value was 58 nM; the “IFN-γ EC75, PBMC reactivation assay” value stood at 91 nM; the “IL-2 EC50, PBMC reactivation assay” value is 24 nM; the “IL-2 EC75, PBMC reactivation assay” value came out at 42 nM. Moreover, the “IL-17 EC50, PBMC reactivation assay” value turned out to be 36 nM and the “IL-17 EC75, PBMC reactivation assay” value was 59 nM.

For the next test the target is unchanged. In words: cell-based or functional assay. The source holds these as a separate data set.
Consider B6, for which the “IL-2 EC50, human whole blood assay” value was 8.3 nM; the “hIFN-γ EC50, human whole blood assay” value turned out to be 5.9 nM; the “hIL-17 EC50, human whole blood assay” value stood at 7.2 nM.
Regarding B2, the “IL-2 EC50, human whole blood assay” value is 4 nM; the “hIFN-γ EC50, human whole blood assay” value is 4.1 nM; the “hIL-17 EC50, human whole blood assay” value stood at 3.6 nM.
Regarding B4, the “IL-2 EC50, human whole blood assay” value came to 10.2 nM; the “hIFN-γ EC50, human whole blood assay” value came out at 9.2 nM; the “hIL-17 EC50, human whole blood assay” value was 9.9 nM.
For B5, in that order: 8.4 nM, 7.6 nM and 8.9 nM.

For another test, the target named is T2, human PD-1 (soluble / purified antigen, …). In words: Biacore (SPR), n = 4; Biacore, n = 4 (not KinExA 575 pM).
In turn, B6 displayed a Kd of 5 nM. In other words, the single-digit nanomolar range.

For another test, the target named is T1, murine PD-1. In words: assay not described; stated in the discussion of the crystal structure.
Take B2: the binding result is “no binding”.

The next test deals with T3, human PD-1 expressed on cells. The test can be described thus: competition with DyL650-PD-L1 for binding to cell surface human PD-1 (CHO), flow cytometry. A general note: Flow cytometry measures light scatter and fluorescence of single cells or particles in a stream.
For orientation: IC50 means the concentration needed to halve the response being measured. Higher therefore signals weaker potency in that assay. Turning to B6, the IC50 is above 100 nM.
Same read-out and setting: under B1 stands above 100 nM; under B2, above 100 nM; under B3, above 100 nM.
Take B4: the concentration for half-maximal inhibition (IC50) is above 100 nM.
Molecule B5 returned an IC50 above 100 nM.

These data come from US20180289802A1 (CELGENE, published 2018).
